Molecular target: CHIKV VLPs, E1-E2 heterodimers on the particle surface (Chikungunya virus, VLP strain not …, UniProt Q5XXP3)
Assay: ELISA

Sequence of CHIKV VLPs, E1-E2 heterodimers on the particle surface (Q5XXP3 whole entry, looked up, one chain of several): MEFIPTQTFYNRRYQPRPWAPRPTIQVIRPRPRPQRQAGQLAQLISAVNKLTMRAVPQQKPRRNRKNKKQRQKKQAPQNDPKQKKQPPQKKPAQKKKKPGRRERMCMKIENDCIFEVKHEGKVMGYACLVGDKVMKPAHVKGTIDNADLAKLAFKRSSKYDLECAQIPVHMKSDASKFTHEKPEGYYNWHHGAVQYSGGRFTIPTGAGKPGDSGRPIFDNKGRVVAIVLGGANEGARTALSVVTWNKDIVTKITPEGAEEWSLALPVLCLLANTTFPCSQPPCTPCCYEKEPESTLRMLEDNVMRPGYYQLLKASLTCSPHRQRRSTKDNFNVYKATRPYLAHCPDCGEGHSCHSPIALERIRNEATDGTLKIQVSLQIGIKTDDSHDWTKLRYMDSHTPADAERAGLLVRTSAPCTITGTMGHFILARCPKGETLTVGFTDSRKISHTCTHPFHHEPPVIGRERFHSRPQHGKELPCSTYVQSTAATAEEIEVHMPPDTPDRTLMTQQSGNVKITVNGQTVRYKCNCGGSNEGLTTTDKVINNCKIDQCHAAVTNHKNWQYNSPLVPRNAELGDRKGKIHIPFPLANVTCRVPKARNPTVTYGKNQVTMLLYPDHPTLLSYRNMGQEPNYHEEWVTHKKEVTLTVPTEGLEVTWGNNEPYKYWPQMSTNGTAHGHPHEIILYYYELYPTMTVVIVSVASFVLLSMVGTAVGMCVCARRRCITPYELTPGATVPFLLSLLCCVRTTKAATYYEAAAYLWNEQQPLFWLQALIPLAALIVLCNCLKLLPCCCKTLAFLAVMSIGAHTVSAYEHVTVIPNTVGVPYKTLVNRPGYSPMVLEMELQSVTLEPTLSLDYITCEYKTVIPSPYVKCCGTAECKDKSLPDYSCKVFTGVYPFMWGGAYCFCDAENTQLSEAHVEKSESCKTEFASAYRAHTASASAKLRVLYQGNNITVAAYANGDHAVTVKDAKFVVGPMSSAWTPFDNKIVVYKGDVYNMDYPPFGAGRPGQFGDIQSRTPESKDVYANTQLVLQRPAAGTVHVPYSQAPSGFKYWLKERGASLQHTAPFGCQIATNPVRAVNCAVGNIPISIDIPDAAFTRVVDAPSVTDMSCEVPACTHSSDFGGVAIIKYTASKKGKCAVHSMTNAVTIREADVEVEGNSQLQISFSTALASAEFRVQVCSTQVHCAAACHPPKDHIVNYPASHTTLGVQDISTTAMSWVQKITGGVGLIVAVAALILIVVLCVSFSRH

B1: CHK-124 IgG (antibody, V domains shown)
VH: QLQESGGGLVQPGGSMKLSCVASGFTFSNYWMNWVRQSPEKGLEWVAQIRLKSDSYATYYADSVKGRFTVSRDDSKSNVYLQMNSLRAEDTGIYYCTDFYGFGDFFPYWGQGTLVTVSS
VL: DIVMTQSPKFMSTSIGDRVSVTCQASQNVGTNVAWYQQKPGQSPKPLIYSASYRYSGVPGRFTGSGSGTDFTLTINNVQSEDLADYFCQQYNSFPLTFGAGTKLELK
- binding result: binds

B2: CHK-263 IgG (antibody, V domains shown)
VH: VQLQQSGAELVKPGASVKISCKASGYAFSSYWMNWVKQRPGKGLEWIGQIYPGDGDTNYNGKFKGKATLTADKSSSTAYMQLSSLTSEDSAVYFCARGGLTIDYWGQGTTLTVSS
VL: DIVLTQSPATLSVTPGDSVSLSCRASQSISDNLHWYQQKSHESPGLLIKYASQSISGIPSRFSGSGSGTDFTLSINSVETEDFGMYFCQQSNSWPYTFGGGTKLEIK
- binding result: binds

Source: article PMC7959576 (Proceedings of the National Academy of Sciences of the …, 2020)
